Data from patent US20250186614A1, “COMPACT DRUG RESPONSIVE DOMAINS FOR REGULATION OF FUNCTION/ABUNDANCE AND DELIVERY OF POLYPEPTIDE PAYLOADS” (OBSIDIAN THERAPEUTICS, INC., priority 2022, published 2025).
Numbering of substitutions follows the chain as printed. Names and notes keep the numbering of the source.

B1: FKBP-043: FKBP13 DRD Q72R, Q84E, A117H, D90G; SEQ ID NO: 6 (protein)
chain: HCPIKSRKGDVLHMHYTGKLEDGTEFDSSLPRNQPFVFSLGTGEVIKGWGQGLLGMCEGEKRKLVIPSELGYGERGHPPKIPGGATLVFEVELLKIER
modifications: Description of sequence: FKBP13-AcGFP-mCherry Fusion; Construct Name: FKBP-043; FKBP13 DRD in Construct : FKBP13 (mutated to match FKBP12 active site - Q72R Q84E A117H) (DRD - D90G)
B2: FKBP-045: FKBP13 DRD Q72R, Q84E, A117H, M96V; SEQ ID NO: 8 (protein)
chain: B1 chain with G50D, M56V
modifications: Description of sequence: FKBP13-AcGFP-mCherry Fusion; Construct Name: FKBP-045; FKBP13 DRD in Construct : FKBP13 (mutated to match FKBP12 active site - Q72R Q84E A117H) (DRD - M96V)
B3: FKBP-041: FKBP13 DRD M54A; SEQ ID NO: 4 (protein)
chain: B1 chain with M14A, R32Q, E44Q, G50D, H77A
modifications: Description of sequence: FKBP13-AcGFP-mCherry Fusion; Construct Name: FKBP-041; FKBP13 DRD in Construct : FKBP13 (DRD - M54A)
B4: FKBP-040: FKBP13 DRD D90G; SEQ ID NO: 3 (protein)
chain: B1 chain with R32Q, E44Q, H77A
modifications: Description of sequence: FKBP13-AcGFP-mCherry Fusion; Construct Name: FKBP-040; FKBP13 DRD in Construct : FKBP13 (DRD - D90G)
B5: FKBP-039: FKBP13 (WT) fragment DRD-AcGFP-mCherry; SEQ ID NO: 2 (protein)
chain: B1 chain with R32Q, E44Q, G50D, H77A
modifications: Description of sequence: FKBP13-AcGFP-mCherry Fusion; Construct Name: FKBP-039; FKBP13 DRD in Construct : FKBP13 (WT)
B6: FKBP-042: FKBP13 DRD M96V; SEQ ID NO: 5 (protein)
chain: B1 chain with R32Q, E44Q, G50D, M56V, H77A
modifications: Description of sequence: FKBP13-AcGFP-mCherry Fusion; Construct Name: FKBP-042; FKBP13 DRD in Construct : FKBP13 (DRD - M96V)
B7: FKBP-182 (protein)
chain: B1 chain with M14A, V45R, G50D, M56W, H77W
modifications: Description of sequence: Construct Name: FKBP-182; Mutation(s): Q72R Q84E A117W V85R DRD M54A M96W
B8: FKBP-181 (protein)
chain: B1 chain with D10L, M14A, V45R, G50D, H77W
modifications: Description of sequence: Construct Name: FKBP-181; Mutation(s): Q72R Q84E A117W V85R DRD M54A D50L
B9: FKBP-171 (protein)
chain: B1 chain with D10L, M14A, G50D, H77W
modifications: Description of sequence: Construct Name: FKBP-171; Mutation(s): Q72R Q84E A117W DRD M54A D50L
B10: FKBP-178 (protein)
chain: B1 chain with M14A, F38S, G50D, H77W
modifications: Description of sequence: Construct Name: FKBP-178; Mutation(s): Q72R Q84E A117W DRD M54AF78S
B11: FKBP-172 (protein)
chain: B1 chain with M14A, G50D, M56W, H77W
modifications: Description of sequence: Construct Name: FKBP-172; Mutation(s): Q72R Q84E A117W DRD M54A M96W
B12: FKBP-185 (protein)
chain: B1 chain with D10A, M14A, T17I, V45R, G50D, H77W, I96L
modifications: Description of sequence: Construct Name: FKBP-185; Mutation(s): Q72R Q84E A117W V85R DRD M54A D50L T57I I136L
B13: FKBP-188 (protein)
chain: B1 chain with M14A, F38S, V45R, G50D, H77W
modifications: Description of sequence: Construct Name: FKBP-188; Mutation(s): Q72R Q84E A117W V85R DRD M54A F78S
B14: FKBP-177 (protein)
chain: B1 chain with M14A, L40G, G50D, H77W
modifications: Description of sequence: Construct Name: FKBP-177; Mutation(s): Q72R Q84E A117W DRD M54AL80G
B15: FKBP-189 (protein)
chain: B1 chain with H13G, M14A, R32L, V45R, G50D, H77W
modifications: Description of sequence: Construct Name: FKBP-189; Mutation(s): Q72R Q84E A117W V85R DRD M54A H53G R72L
B16: FKBP-186 (protein)
chain: B1 chain with M14A, V45R, G50D, G76E, H77W
modifications: Description of sequence: Construct Name: FKBP-186; Mutation(s): Q72R Q84E A117W V85R DRD M54A G116E
B17: FKBP-187 (protein)
chain: B1 chain with M14A, L40G, V45R, G50D, H77W
modifications: Description of sequence: Construct Name: FKBP-187; Mutation(s): Q72R Q84E A117W V85R DRD M54A L80G

Test system: HEK-293T cells
Test: Tacrolimus (FK506) response of FKBP13-AcGFP-mCherry constructs transiently transfected into HEK-293T cells, flow cytometry
Assay type: cell-based
Conditions: 0, 1 or 10 μM FK506, 24 hours, FIG. 1B
Text: The DRD in FKBP13-039 was a wildtype (WT) FKBP13 (i.e., a 98 amino acid fragment of SEQ ID NO: 1). […] The FKBP13-043, FKBP13-044, and FKBP13-045 constructs included DRD-genic mutations D90G, M54A and M96V, respectively, and three binding site mutations (Q72R, Q84E, and A117H).

Molecule	AcGFP stabilization / fluorescence signal in response to FK506
B1	increased more effectively
B2	increased more effectively

Same assay, conditions: FIG. 1B

Molecule	DRD activity
B1	had DRD activity

Same assay, conditions: tacrolimus response of FKBP13 DRD-AcGFP construct; Table 3

Molecule	Fold Change
B1	26.5
B3	7.8
B4	1
B5	4.9
B6	1.3
B2	23.2

Test system: not listed separately
Test: Example 4: dose response of FKBP constructs 160-255, Ec50, Ec90 and fold change (raw and normalized to mCherry)
Assay type: cell-based
Conditions: FKBP constructs 160-255; not normalized; read-out: EC90
Description: Additional experiments were performed for constructs FKBP-160-292.

Molecule	EC90
B7	0.819 µM
B8	14.1 µM
B9	8.16 µM
B10	22.3 µM
B11	1.05 µM
B12	22.1 µM
B13	16.6 µM
B14	18.7 µM
B15	25.8 µM
B16	17.9 µM
B17	14.5 µM

Same assay, conditions: fold change during initial analysis

Molecule	FC (fold change)
B7	64.9
B8	52.0
B9	60.3
B10	36.4
B11	63.1
B12	40.2
B13	20.5
B14	22.3
B15	23.0
B16	19.0
B17	24.0

Same assay, conditions: normalized to mCherry; read-out: EC90 (Norm)

Molecule	EC90
B7	0.928 µM
B8	5.06 µM
B9	10.1 µM
B10	28.4 µM
B11	1.31 µM
B12	23.4 µM
B13	20.8 µM
B14	23.9 µM
B15	30.1 µM
B16	21 µM
B17	21.3 µM

Test system: Jurkat cells
Test: Tacrolimus dose response of FKBP13-AcGFP-mCherry constructs stably transduced into Jurkat cells, GFP MFI by flow cytometry
Assay type: cell-based
Conditions: read-out: Tacrolimus EC90 (Norm); tacrolimus; normalized; Table 14
How it was run: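 GFP geometric MFI was read by flow cytometry in mCherry+ cells and curve-fitted against tacrolimus dose. Cells were Jurkat E6-1, lentivirus-transduced with FKBP13-AcGFP-mCherry fusion constructs until 10-25% mCherry-positive on day 5 post-transduction.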

Molecule	EC90
B7	0.928 µM
B8	5.06 µM
B9	10.1 µM
B10	28.4 µM
B11	1.31 µM
B12	23.4 µM
B13	20.8 µM
B14	23.9 µM
B15	30.1 µM
B16	21 µM
B17	21.3 µM

Same assay, conditions: read-out: Tacrolimus EC90; tacrolimus; Table 14

EC90	Molecule
0.819 µM	B7
14.1 µM	B8
8.16 µM	B9
22.3 µM	B10
1.05 µM	B11
22.1 µM	B12
16.6 µM	B13
18.7 µM	B14
25.8 µM	B15
17.9 µM	B16
14.5 µM	B17

Same assay, conditions: tacrolimus; fold change; Table 14

Molecule	Tacrolimus FC
B7	64.9
B8	52
B9	60.3
B10	36.4
B11	63.1
B12	40.2
B13	20.5
B14	22.3
B15	23
B16	19
B17	24

Test system: Jurkat cells
Test: Sirolimus (rapamycin) dose response of FKBP13 constructs stably transduced into Jurkat cells, flow cytometry
Assay type: cell-based
Conditions: rapamycin; Table 14; read-out: Rapamycin EC90
Description: Normalized EC50 values were calculated from the mCherry normalized GFP MFI values, which accounted for any differences in mCherry intensity between samples.

EC90	Molecule
3.84 µM	B7
11.8 µM	B8
16 µM	B9
16.8 µM	B10
2.14 µM	B11
5.34 µM	B12
5.41 µM	B13
5.28 µM	B14
5.47 µM	B15
5.87 µM	B16
5.31 µM	B17

Same assay, conditions: rapamycin; fold change; Table 14

Molecule	Rapamycin FC
B7	21.5
B8	15.5
B9	14.1
B10	2.9
B11	21.3
B12	2
B13	2.6
B14	2.3
B15	2.5
B16	1.7
B17	2.3

Same assay, conditions: rapamycin; normalized; Table 14; read-out: Rapamycin EC90 (Norm)

Molecule	EC90
B7	4.11 µM
B8	11.5 µM
B9	18 µM
B10	151 µM
B11	2.29 µM
B12	22 µM
B13	5.83 µM
B14	6.33 µM
B15	5.53 µM
B16	5.22 µM
B17	5.66 µM
